Target: the molecule itself
Assay: crystal structure; Vps75 (1-225) crystallised from the VAH preparation; sitting drop, 0.1 M sodium cacodylate pH 6.5, 25% PEG 4000; four monomers in the asymmetric unit, two tetrameric assemblies in the lattice

B1: Vps75 (1–225) (domain or fragment, UniProt P53853 1-225, looked up)
chain: MMSDQENENEHAKAFLGLAKCEEEVDAIEREVELYRLNKMKPVYEKRDAYIDEIAEFWKIVLSQHVSFANYIRASDFKYIDTIDKIKVEWLALESEMYDTRDFSITFHFHGIEGDFKEQQVTKVFQIKKGKDDQEDGILTSEPVPIEWPQSYDSINPDLIKDKRSPEGKKKYRQGMKTIFGWFRWTGLKPGKEFPHGDSLASLFSEEIYPFCVKYYAEAQRDLED
notes: Vps75, yeast, residues 1-225 (C-terminally truncated), as crystallised; Crystallised from the Vps75-Asf1-H3-H4 preparation; only Vps75 is in the crystal; also called Vps75 tetramer; Vps75 (1-225) dimer
stoichiometry N: 4

— PMC5291247, “The histone chaperone Vps75 forms multiple oligomeric assemblies capable of mediating exchange between histone H3–H4 tetramers and Asf1–H3–H4 complexes” (Nucleic Acids Research, 2016)
